Capping activity against TMOD1^wt: inhibition of pyrene-actin polymerisation, inhibition of pyrene-actin depolymerisation from pointed ends against TMOD1^wt, long filaments (1:100 gelsolin to actin), without TPM1 (fold weaker than TMOD1^wt) and inhibition of pyrene-actin depolymerisation from pointed ends against TMOD1^wt, short filaments (1:10 gelsolin to actin), without TPM1 (fold weaker than TMOD1^wt) data for one substance are collected here from PMC10761686.

In test [1] the target is actin from rabbit skeletal muscle, as filaments (F-actin) capped at their barbed ends by gelsolin (rabbit) (UniProt P68135).
Test [2] shares this target. The source holds these as a separate data set.

Turning to “tropomodulin 1 (TMOD1) with the patient variant p.R189W, purified recombinant human (from UniProt P28289-1 1-359) (natural protein)”, in test [1], the capping activity against TMOD1^wt: inhibition of pyrene-actin polymerisation at pointed ends of long filaments (1:100 gelsolin to actin), without TPM1 (fold weaker than TMOD1^wt) worked out at 2 and the capping activity against TMOD1^wt: inhibition of pyrene-actin polymerisation at pointed ends of short filaments (1:10 gelsolin to actin), without TPM1 (fold weaker than TMOD1^wt) stood at 2. In addition, in test [2], the inhibition of pyrene-actin depolymerisation from pointed ends against TMOD1^wt, long filaments (1:100 gelsolin to actin), without TPM1 (fold weaker than TMOD1^wt) came out at 2 and the inhibition of pyrene-actin depolymerisation from pointed ends against TMOD1^wt, short filaments (1:10 gelsolin to actin), without TPM1 (fold weaker than TMOD1^wt) came out at 5.
